The values below are quoted from earlier work in article PMC9313406.

This data set deals with ACE2 (dimeric) (Homo sapiens) (UniProt Q9BYF1). Briefly: SPR.
Chain of ACE2 (dimeric) (Homo sapiens) (Q9BYF1 18-740): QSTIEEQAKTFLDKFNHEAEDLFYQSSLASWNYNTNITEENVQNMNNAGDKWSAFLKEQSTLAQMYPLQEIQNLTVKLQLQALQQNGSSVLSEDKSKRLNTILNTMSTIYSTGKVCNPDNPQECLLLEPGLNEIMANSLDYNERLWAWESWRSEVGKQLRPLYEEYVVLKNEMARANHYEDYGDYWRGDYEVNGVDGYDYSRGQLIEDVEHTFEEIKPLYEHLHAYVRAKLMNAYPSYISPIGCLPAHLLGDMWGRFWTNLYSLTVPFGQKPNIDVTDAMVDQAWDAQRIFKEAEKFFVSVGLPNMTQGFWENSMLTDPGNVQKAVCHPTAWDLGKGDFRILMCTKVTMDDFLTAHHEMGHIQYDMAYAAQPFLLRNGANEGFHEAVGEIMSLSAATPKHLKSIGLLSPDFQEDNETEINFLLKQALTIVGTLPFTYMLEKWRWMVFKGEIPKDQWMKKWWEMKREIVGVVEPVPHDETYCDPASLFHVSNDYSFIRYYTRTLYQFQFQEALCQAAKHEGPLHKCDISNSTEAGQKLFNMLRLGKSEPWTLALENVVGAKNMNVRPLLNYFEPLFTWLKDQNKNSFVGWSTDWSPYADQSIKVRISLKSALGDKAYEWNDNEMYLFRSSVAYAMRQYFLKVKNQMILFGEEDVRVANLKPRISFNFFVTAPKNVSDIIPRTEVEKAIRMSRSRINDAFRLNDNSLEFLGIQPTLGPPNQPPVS

As to Spike protein (from UniProt P0DTC2), the Kd is 0.283 nM.

One may read the Kd as the constant that tells how readily two partners part at equilibrium.
